Test results from PMC2171531.

Target: GST-syntaxin-1 (UniProt P32851)
Test: pull-down

Chain of GST-syntaxin-1 (P32851 1-265): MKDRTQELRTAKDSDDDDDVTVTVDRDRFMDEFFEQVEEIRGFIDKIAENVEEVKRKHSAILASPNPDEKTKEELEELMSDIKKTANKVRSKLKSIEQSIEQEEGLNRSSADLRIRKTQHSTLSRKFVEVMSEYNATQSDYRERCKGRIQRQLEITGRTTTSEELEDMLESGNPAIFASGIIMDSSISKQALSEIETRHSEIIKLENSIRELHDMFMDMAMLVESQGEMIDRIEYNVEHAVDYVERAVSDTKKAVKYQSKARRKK

Substance	Kd [nM]	percent of the total input bound [%]	amount bound in comparison with MBP-tomosyn [%]
MBP-tomosyn (nonphosphorylated form) (natural protein)	60	60	–
MBP-tomosyn phosphorylated by PKA (natural protein)	330	20	–
MBP-tomosyn-S724D (natural protein)	–	–	35
